Values quoted from earlier work in publication PMC4209448 (Scientific Reports, 2014).

Details: C57BL/6 mice

Aβ(1–40): amyloid-β(1–40) peptide whose CSF-to-blood efflux half-time is quoted from the literature
Half-time of efflux from the CSF to blood: 34.63 ± 3.6 min
